Columns and labels:
[1] = target: T1, Human CD70 on CD70-expressing human tumor cell lines (Raji, 786-O, Caki-1) (human, UniProt P32970 1-193); experiment: flow cytometry on Raji cells, detection with PE-conjugated anti-human Fc, MFI(PE)
T1 construct: whole, on cells; Endogenous CD70 on the cells; also called human CD70-expressing cell lines; CD70-positive cell lines 786-O, Raji and Caki-1
T1 sequence (looked up): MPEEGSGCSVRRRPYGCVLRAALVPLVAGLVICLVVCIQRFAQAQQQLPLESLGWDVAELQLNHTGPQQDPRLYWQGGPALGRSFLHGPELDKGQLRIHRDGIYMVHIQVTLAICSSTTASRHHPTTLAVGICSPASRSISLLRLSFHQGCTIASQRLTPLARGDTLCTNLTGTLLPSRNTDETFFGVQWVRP
Protocol: (§1) The binding activity of 2E7 antibody or 2E7-LD038 ADC was evaluated by Flow cytometric analysis (Beckman, Cytoflex) with target-expressing cell lines, Raji, 786-O, Caki-1, and a cell line with negligible CD70 expression, MCF-7. 3×10⁵ cells were seeded per well at 96-well v-bottomed plate and incubated with 100 μl of 2E7 or 2E7-LD038 in serial dilutions. After 30 minutes of incubation at 4° C., cells were washed twice with PBS, stained with 100 μl of 1:200 diluted PE-conjugated anti human Fc in FACS buffer (1×PBS containing 1% BSA) and then incubated at 4° C. for 30 minutes. After that the cells were washed 2 times with PBS and analyzed by Flow cytometric analysis.

[2] = target: T1, Human CD70 on CD70-expressing human …; experiment: flow cytometry on 786-O cells, detection with PE-conjugated anti-human Fc, MFI(PE)
Protocol: as §1

[3] = target: T1, Human CD70 on CD70-expressing human …; experiment: flow cytometry on Caki-1 cells, detection with PE-conjugated anti-human Fc, MFI(PE)
Protocol: as §1

[4] = target: T2, Recombinant mouse CD70 extra-cellular domain (ECD) linked to His tag (mouse, UniProt O55237 45-195); experiment: BLI (Octet RED), antibody on anti-human IgG Fc tips, CD70 ECD-His in solution 200 to 3.13 nM
T2 construct: extracellular domain; Purchased or made in house; not shown: His tag
T2 sequence (looked up): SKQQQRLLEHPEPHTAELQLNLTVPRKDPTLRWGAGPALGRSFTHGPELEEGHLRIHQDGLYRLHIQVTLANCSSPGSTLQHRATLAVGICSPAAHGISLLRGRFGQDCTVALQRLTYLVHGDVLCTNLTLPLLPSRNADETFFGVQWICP
Protocol: (§2) Recombinant proteins consisting of the CD70 extra-cellular domain (ECD) linked to His tag were either purchased (from KACTUS or ACRO biosystems) or synthesized in house. 2E7 antibody or 2E7-LD038 conjugate (20 nM) was immobilized on anti-human IgG Fc biosensor tips (Fortebio). Binding assays using varying concentration from 200 nM down to 3.13 nM of recombinant protein in solution were performed using Octet RED (Fortebio). Association time was set at 180 seconds and dissociation time was set at 300 seconds. Binding affinity was calculated using ForteBio Data Acquisition 6.3 software (ForteBio). Affinity was derived by fitting the kinetic data to a 1:1 Langmuir binding model utilizing global fitting algorithms.

[5] = target: T3, Recombinant human CD70 extra-cellular domain (ECD) linked to His tag (human, UniProt P32970 39-193); experiment: BLI (Octet RED), antibody on anti-human IgG Fc tips, CD70 ECD-His in solution 200 to 3.13 nM, 1:1 global fit
T3 construct: extracellular domain; Purchased (KACTUS or ACRO biosystems) or made in house; also called human CD70 protein; not shown: His tag
T3 sequence (looked up): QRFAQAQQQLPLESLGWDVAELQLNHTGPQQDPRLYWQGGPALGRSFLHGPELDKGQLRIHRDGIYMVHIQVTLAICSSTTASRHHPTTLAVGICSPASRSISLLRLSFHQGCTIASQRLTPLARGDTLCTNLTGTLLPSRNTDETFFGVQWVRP
Protocol: as §2

[6] = target: T4, Recombinant cynomolgus monkey CD70 extra-cellular domain (ECD) linked to His tag (cynomolgus monkey, UniProt A0A2K5WTU9 39-190); experiment: as above
T4 construct: extracellular domain; Purchased or made in house; also called Cyno CD70; not shown: His tag
T4 sequence: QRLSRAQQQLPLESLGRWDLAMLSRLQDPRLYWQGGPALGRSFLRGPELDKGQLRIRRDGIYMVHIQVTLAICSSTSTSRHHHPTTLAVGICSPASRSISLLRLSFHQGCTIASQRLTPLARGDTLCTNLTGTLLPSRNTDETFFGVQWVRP
Protocol: as §2

[7] = target: T1, Human CD70 on CD70-expressing human …; experiment: flow cytometry blocking assay on Raji cells; blocked ligand: biotinylated human CD27 at 30 ug/ml, detection with PE-conjugated streptavidin
Protocol: (§3) CD70-positive cell lines 786-O, Raji and Caki-1 were mixed with varying concentrations from 333.5 nM down to 6 nM of 2E7-LD038 conjugate, or 2E7 antibody, or negative binding control (B12), and incubated at 4° C. for 30 minutes. Cells were washed twice with PBS and then incubated with 30 µg/ml biotinylated human CD27 (the receptor for CD70) at 4° C. Staining was done using PE-conjugated streptavidin for 30 minutes and fluorescence was measured using flow cytometer.

[8] = target: T1, Human CD70 on CD70-expressing human …; experiment: flow cytometry blocking assay on 786-O cells; blocked ligand: biotinylated human CD27 at 30 ug/ml, detection with PE-conjugated streptavidin
Protocol: as §3

[9] = target: T1, Human CD70 on CD70-expressing human …; experiment: flow cytometry blocking assay on Caki-1 cells; blocked ligand: biotinylated human CD27 at 30 ug/ml, detection with PE-conjugated streptavidin
Protocol: as §3

[10] = Hydrophobic interaction chromatography (HIC) of anti-CD70 antibodies; assay type: physicochemical; details: for Retention time (hydrophobicity): TSK gel Butyl-NPR
Protocol: Antibodies were purified from cleared cell culture supernatants using Protein A chromatography (Protein A resin slurry, 4.5 mL, Bogen, Cat #18-0010-02). Briefly, supernatants were prepared for affinity chromatography and loaded onto the columns and allowed to flow completely through the resin. The columns were washed with binding buffer containing 0.15M NaCl and 0.2M PB, PH7.0. Antibody was eluted with elution buffer containing 0.15M NaCl, 0.1M Glycine and 0.2M PB, PH 3.0. Fractions were collected and neutralized by the addition of 1/10 volume of 1M Tris, PH9.0. The fractions were dialyzed for 2 hours against 1×PBS. Purified antibody was quantified by absorbance at A280. Samples from each step of the protein A chromatography were applied onto 12% SDS-PAGE gels for reduced and non-reduced electrophoresis. The hydrophobicity was assessed with hydrophobic interaction chromatography (HIC) on a TSK gel Butyl-NPR, 4.6×100 mm with Butyl-NPR (Tosoh corporation) using a Waters HPLC 2695 system.

[11] = target: T2, Recombinant mouse CD70 extra-cellular …; experiment: BLI (Octet RED), conjugate on anti-human IgG Fc tips, CD70 ECD-His in solution 200 to 3.13 nM
Protocol: as §2

[12] = target: T3, Recombinant human CD70 extra-cellular …; experiment: BLI (Octet RED), conjugate on anti-human IgG Fc tips, CD70 ECD-His in solution 200 to 3.13 nM, 1:1 global fit
Protocol: as §2

[13] = target: T4, Recombinant cynomolgus monkey CD70 …; experiment: as above
Protocol: as §2

| Molecule | EC50 [1] [nM] | EC50 [2] [nM] | EC50 [3] [nM] | IC50 [7] [nM] | IC50 [8] [nM] | IC50 [9] [nM] | Retention time (hydrophobicity) [10] [min] | also measured |
| --- | --- | --- | --- | --- | --- | --- | --- | --- |
| 2E7 antibody (antibody, human IgG1, kappa, V domains shown, Made in ExpiCHO-S cells and purified on Protein A; also called Ab 2E7; parental mAb (2E7)) VH: QVQLQESGPGLVKPSETLSLTCTVSGGSVSSDYYYWSWIRQPPGKGLEWLGYIYYSGSTNYNPSLKSRVTISVDTSKNQFSLKLRSVTTADTAVYYCARGDGDFLGVCFDYWGQGTLVTVSS VL: EIVLTQSPATLSLSPGERATLSCRASQSVSSYLAWYQQKPGQAPRLLIFDASNRATGIPARFSGSGSGTDFTLTISSLEPEDFAVYYCQQRSNWPLTFGGGTKVEIKR | 19.9 | 2.81 | 1.59 | 8.78 | 6.24 | 7.04 |  | binding result [4]: no binding (tested: 200 nM); Kd [5]: 0.807 nM; koff [5]: 0.000254 s⁻¹; kon [5]: 314000 M⁻¹ s⁻¹; Kd [6]: 0.39 nM; koff [6]: 0.000241 s⁻¹; kon [6]: 618000 M⁻¹ s⁻¹ |
| 2D2: anti-CD70 clone with "at least two more amino acid substitutions in HCDR3/LCDR3" "compared with the parent antibody 69A7" (antibody, V domains shown) VH: QVQLQESGPGLVKPSETLSLTCTVSGGSVSSDYYYWSWIRQPPGKGLEWLGYIYYSGSTNYNPSLKSRVTISVDTSKNQFSLKLRSVTTADTAVYYCARGDGDYGGNCFDYWGQGTLVTVSS VL: EIVLTQSPATLSLSPGERATLSCRASQSVSSYLAWYQQKPGQAPRLLIFDASNRATGIPARFSGSGSGTDFTLTISSLEPEDFAVYYCQQRLKFPLTFGGGTKVEIK |  |  |  |  |  |  | 8.81 |  |
| 1H8: anti-CD70 clone with "at least two more amino acid substitutions in HCDR3/LCDR3" "compared with the parent antibody 69A7" (antibody, V domains shown) VH: QVQLQESGPGLVKPSETLSLTCTVSGGSVSSDYYYWSWIRQPPGKGLEWLGYIYYSGSTNYNPSLKSRVTISVDTSKNQFSLKLRSVTTADTAVYYCARGDGDFMGVCFDYWGQGTLVTVSS VL: EIVLTQSPATLSLSPGERATLSCRASQSVSSYLAWYQQKPGQAPRLLIFDASNRATGIPARFSGSGSGTDFTLTISSLEPEDFAVYYCQQRSNWPLTFGGGTKVEIK |  |  |  |  |  |  | 10.24 | hydrophobicity compared with parent antibody 69A7 [10]: slightly more hydrophobic than the parent antibody |
| 2E7-LD038 conjugate (antibody, human IgG1, kappa, DAR 8, V domains shown, Drug-Linker LD038 (PB038; PEG unit, cleavable linker, exatecan) attached to cysteines after TCEP reduction; DAR8 for the whole antibody; residues not stated, The constant regions are tied to 2E7 by claim 120; also called PA038; ADC PA038) VH: QVQLQESGPGLVKPSETLSLTCTVSGGSVSSDYYYWSWIRQPPGKGLEWLGYIYYSGSTNYNPSLKSRVTISVDTSKNQFSLKLRSVTTADTAVYYCARGDGDFLGVCFDYWGQGTLVTVSS VL: EIVLTQSPATLSLSPGERATLSCRASQSVSSYLAWYQQKPGQAPRLLIFDASNRATGIPARFSGSGSGTDFTLTISSLEPEDFAVYYCQQRSNWPLTFGGGTKVEIKR | 26.4 | 2.16 | 1.45 | 11.6 | 7.35 | 8.03 |  | binding result [11]: no binding (tested: 200 nM); Kd [12]: 0.12 nM; koff [12]: 5.45e-05 s⁻¹; kon [12]: 456000 M⁻¹ s⁻¹; Kd [13]: 0.144 nM; koff [13]: 9.4e-05 s⁻¹; kon [13]: 652000 M⁻¹ s⁻¹ |
| 2A4: anti-CD70 clone with "at least two more amino acid substitutions in HCDR3/LCDR3" "compared with the parent antibody 69A7" (antibody, V domains shown) VH: QVQLQESGPGLVKPSETLSLTCTVSGGSVSSDYYYWSWIRQPPGKGLEWLGYIYYSGSTNYNPSLKSRVTISVDTSKNQFSLKLRSVTTADTAVYYCARGDGDYGGNVFPYWGQGTLVTVSS VL: EIVLTQSPATLSLSPGERATLSCRASQSVSSYLAWYQQKPGQAPRLLIFDASNRATGIPARFSGSGSGTDFTLTISSLEPEDFAVYYCQQRSNWPLTFGGGTKVEIK |  |  |  |  |  |  | 9.06 |  |

Source: patent US20260083853A1, “CD70 ANTIBODY DRUG CONJUGATES AND METHODS OF USING THE SAME” (Genmab A/S, priority 2022, published 2026)
